Experimental data reported in patent publication US20140322307A1 (LIPOTEC S A, published 2014).

T1: Proteinase-Activated Receptor-2 (human, on human keratinocytes) (human, UniProt P55085 37-397)
T1 sequence (looked up): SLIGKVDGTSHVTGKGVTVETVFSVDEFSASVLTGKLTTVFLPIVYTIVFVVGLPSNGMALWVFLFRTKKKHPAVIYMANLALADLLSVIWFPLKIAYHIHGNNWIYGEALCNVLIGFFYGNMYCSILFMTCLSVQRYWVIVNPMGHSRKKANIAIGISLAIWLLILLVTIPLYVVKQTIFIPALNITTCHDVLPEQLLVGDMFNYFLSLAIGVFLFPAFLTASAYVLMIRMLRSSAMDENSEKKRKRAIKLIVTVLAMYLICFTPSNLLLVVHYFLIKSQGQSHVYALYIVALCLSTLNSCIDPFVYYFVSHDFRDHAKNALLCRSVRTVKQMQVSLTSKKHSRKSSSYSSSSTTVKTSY

T2: Proteinase-Activated Receptor-2 (rat, on rat DRG neurons) (rat, UniProt Q63645 37-397)
T2 sequence (looked up): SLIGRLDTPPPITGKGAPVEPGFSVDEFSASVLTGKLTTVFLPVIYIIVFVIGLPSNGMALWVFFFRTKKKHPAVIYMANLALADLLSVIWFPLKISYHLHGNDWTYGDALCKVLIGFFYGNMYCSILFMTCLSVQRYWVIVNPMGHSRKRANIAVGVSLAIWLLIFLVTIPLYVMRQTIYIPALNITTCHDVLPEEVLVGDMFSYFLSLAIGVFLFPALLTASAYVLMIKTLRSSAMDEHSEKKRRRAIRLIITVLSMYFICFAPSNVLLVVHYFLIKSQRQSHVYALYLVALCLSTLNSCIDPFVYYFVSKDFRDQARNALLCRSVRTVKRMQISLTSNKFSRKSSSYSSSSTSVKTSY


Experiments:
[1] = biological target: T1, Proteinase-Activated Receptor-2 (human, …); assay: cell-based or functional assay
[2] = biological target: T2, Proteinase-Activated Receptor-2 (rat, …); assay: cell-based or functional assay

Binder	Inhibition PAR-2 activity (calcium fluorescence, human keratinocytes, peptide at 1 mg/mL) [1] [%]	PAR-2 activity (calcium fluorescence, human keratinocytes, peptide at 1 mg/mL) [1] [%]	% CGRP (release from rat DRG neurons after PAR-2 agonist I and capsaicin; peptide at 25 µg/mL) [2] [%]	% CGRP (release from rat DRG neurons after PAR-2 agonist I and capsaicin; peptide at 0.5 mg/mL) [2] [%]
Ac-FFWDIV-NH2 [Ac-L-Phe-L-Phe-L-Trp-L-Asp-L-Ile-L-Val-NH2]	67.4	32.6	78.7	20.3
Ac-FFWFHV-NH2 [Ac-L-Phe-L-Phe-L-Trp-L-Phe-L-His-L-Val-NH2]	67.8	32.2	58.9	17.7
Ac-FMWFHV-NH2 [Ac-L-Phe-L-Met-L-Trp-L-Phe-L-His-L-Val-NH2]	76.5	23.5	70.1	20.2
Ac-SMWFIV-NH2 [Ac-L-Ser-L-Met-L-Trp-L-Phe-L-Ile-L-Val-NH2]	43.3	56.7		
Ac-FFWFIV-NH2 [Ac-L-Phe-L-Phe-L-Trp-L-Phe-L-Ile-L-Val-NH2]	13.9	86.1		
